# Assay results published in article PMC5864754, “Cryo-EM structure of the polycystic kidney disease-like channel PKD2L1” (Nature Communications, 2018).
# B1: PKD2L1 (residues 64–629) (domain or fragment, mouse, UniProt A2A259 64-629, looked up)
# chain: TLVSSCCLHICRSIRGLWGTTLTENTAENRELYVKTTLRELVVYIVFLVDICLLTYGMTSSSAYYYTKVMSELFLHTPSDSGVSFQTISSMSDFWDFAQGPLLDSLYWTKWYNNQSLGRGSHSFIYYENLLLGAPRLRQLRVRNDSCVVHEDFREDILNCYDVYSPDKEDQLPFGPQNGTAWTYHSQNELGGSSHWGRLTSYSGGGYYLDLPGSRQASAEALQGLQEGLWLDRGTRVVFIDFSVYNANINLFCILRLVVEFPATGGTIPSWQIRTVKLIRYVNNWDFFIVGCEVVFCVFIFYYVVEEILEIHLHRLRYLSSVWNILDLVVILLSIVAVGFHIFRTLEVNRLMGKLLQQPDTYADFEFLAFWQTQYNNMNAVNLFFAWIKIFKYISFNKTMTQLSSTLARCAKDILGFAIMFFIVFFAYAQLGYLLFGTQVENFSTFVKCIFTQFRIILGDFDYNAIDNANRILGPVYFVTYVFFVFFVLLNMFLAIINDTYSEVKEELAGQKDQLQLSDFLKQSYNKTLLRLRLRKERVSDVQKVLKGGEPEIQFEDFTSTLRELG
# modifications: oligosaccharides identified on N241 and N207; glycosylation site N177
# notes: Mus musculus PKD2L1, residues 64-629; lacks the EF hand and the coiled-coil domain; residues 101-563 are visible in the structure; Homotetrameric channel; Cloned in a pCAG vector; also called PKD2L1_64–629; truncated PKD2L1; source: exchanged into amphipols
# Target: the molecule itself
# Assay: cryo-EM structure; purified PKD2L1 (64-629) in amphipols, 20 mM HEPES pH 7.5, 150 mM NaCl, about 5 mg/ml; C4 symmetry applied; 3.38 Å
protein,measurement,value
B1,stoichiometry N,4
